Results from patent US20260258141A1 (BIOCYTOGEN PHARMACEUTICALS BEIJING, published 2026).

Key:
[1] = target: T1, His-tagged human IGF1R protein (ACRO Biosystems Inc., Cat #: IGR-H5229) (human, UniProt P08069 31-932); test: SPR (Biacore 8K) on captured hIGF1R-His, binder injected second (Analyte 2); competitor injected first (Analyte 1): Teprotumumab analog
T1 construct: Bought protein; also called hIGF1R-His; not shown: His tag
Experimental: (§1) Epitope binding assays were performed using Biacore™ 8K biosensor to determine whether two anti-IGF1R antibodies target the same or overlapping epitopes. 1×HBS-EP+ buffer (10 mM 4-(2-hydroxyethyl)-1-piperazineethanesulfonic acid (HEPES), 150 mM NaCl, 3 mM ethylenediaminetetraacetic acid (EDTA) and 0.05% P20, pH7.4) diluted from HBS-EP+buffer (10×) was used as the running buffer throughout the experiment. About 50 RU of hIGF1R-His was captured at a flow rate of 10 μL/min, and 200 nM of the tested antibody (Analyte 1) was injected at a flow rate of 30 uL/min to bind the ligand. Another comparison antibody (Analyte 2) was injected under the same conditions to determine whether the binding of different antibodies interfered with each other. The binding time was 180 s for each antibody.
(§2) The binding value of each antibody was obtained using Biacore Insight Evaluation (Version: 2.0.15.12933). To quantify the interference of one antibody binding to another, a binding ratio was calculated to compare each pair of antibodies. The binding ratio is defined as the binding value of the second antibody (Analyte 2) divided by the binding value of the first antibody (Analyte 1). The threshold to determine the block or non-block is 0.3.

[2] = target: His-tagged cynomolgus monkey IGF1R protein (ACRO Biosystems Inc., Cat #: IGR-C5225) (cynomolgus monkey); test: SPR (Biacore 8K), antibody captured on Protein A chip, antigen as analyte, 1:1 model
[3] = target: T1, His-tagged human IGF1R protein (ACRO …); test: SPR (Biacore 8K) on captured hIGF1R-His, binder injected second (Analyte 2); competitor injected first (Analyte 1): 10D1
Experimental: as §1, §2

[4] = target: T2, human insulin receptor INSR on cells (human, UniProt P06213 28-1382); test: flow cytometry on CHO-S-hINSR cells, antibody 20 µg/mL
T2 construct: Expressed on CHO-S cells; also called hINSR; CHO-S-hINSR cells
T2 sequence (P06213 other isoform, or with tags, fused parts or gaps limits assumed): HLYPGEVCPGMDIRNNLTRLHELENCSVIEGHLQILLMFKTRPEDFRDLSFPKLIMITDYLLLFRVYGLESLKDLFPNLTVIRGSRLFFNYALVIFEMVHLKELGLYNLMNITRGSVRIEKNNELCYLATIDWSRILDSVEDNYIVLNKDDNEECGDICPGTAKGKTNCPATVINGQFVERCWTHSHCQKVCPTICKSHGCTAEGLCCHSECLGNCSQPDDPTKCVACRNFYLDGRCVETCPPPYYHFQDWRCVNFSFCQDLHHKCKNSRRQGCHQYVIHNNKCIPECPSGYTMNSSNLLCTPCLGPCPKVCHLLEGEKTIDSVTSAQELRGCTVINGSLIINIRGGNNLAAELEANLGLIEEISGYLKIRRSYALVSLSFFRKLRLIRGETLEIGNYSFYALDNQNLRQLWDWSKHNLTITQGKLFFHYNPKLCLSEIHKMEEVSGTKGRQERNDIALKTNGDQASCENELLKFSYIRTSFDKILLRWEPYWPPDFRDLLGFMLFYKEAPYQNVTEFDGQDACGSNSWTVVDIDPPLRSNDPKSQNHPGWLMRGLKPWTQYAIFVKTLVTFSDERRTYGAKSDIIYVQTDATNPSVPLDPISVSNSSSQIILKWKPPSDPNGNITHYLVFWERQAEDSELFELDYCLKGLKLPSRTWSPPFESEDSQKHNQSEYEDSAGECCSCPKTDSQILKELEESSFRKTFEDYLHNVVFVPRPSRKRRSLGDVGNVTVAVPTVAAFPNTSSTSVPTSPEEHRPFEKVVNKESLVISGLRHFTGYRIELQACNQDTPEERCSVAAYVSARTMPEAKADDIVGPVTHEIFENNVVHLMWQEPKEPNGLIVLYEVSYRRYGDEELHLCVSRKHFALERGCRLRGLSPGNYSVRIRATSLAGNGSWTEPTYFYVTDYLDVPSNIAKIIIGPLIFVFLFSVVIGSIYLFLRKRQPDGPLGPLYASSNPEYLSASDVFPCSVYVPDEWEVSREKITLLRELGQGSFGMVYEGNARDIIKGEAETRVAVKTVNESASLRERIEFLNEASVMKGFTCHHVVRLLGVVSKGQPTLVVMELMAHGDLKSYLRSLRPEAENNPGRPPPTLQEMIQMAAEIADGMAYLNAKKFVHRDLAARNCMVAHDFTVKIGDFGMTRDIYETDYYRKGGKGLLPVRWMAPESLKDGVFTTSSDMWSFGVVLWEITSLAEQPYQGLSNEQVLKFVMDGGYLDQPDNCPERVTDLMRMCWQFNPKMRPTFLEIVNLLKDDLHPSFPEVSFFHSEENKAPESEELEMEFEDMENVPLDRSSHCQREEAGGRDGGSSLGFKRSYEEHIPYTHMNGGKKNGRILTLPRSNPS
Experimental: (§3) INSR (insulin receptor) and IGF1R are both members of the superfamily of receptor tyrosine kinases (RTKs). The binding activity of anti-IGF1R antibodies to human IGF1R, human INSR and monkey IGF1R was verified by flow cytometry. Briefly, CHO-S-hIGF1R cells (expressing human IGF1R (SEQ ID NO: 45), CHO-S-fasIGF1R cells (expressing cynomolgus monkey IGF1R (SEQ ID NO: 46) and CHO-S-hINSR (expressing SEQ ID NO: 47) were plated in a 96-well plate at a density of 2×10⁵ cells/well respectively. Purified anti-IGF1R antibody with a concentration of 20 μg/mL was added to each well and was incubated at 4° C. for 30 minutes. Then, after one wash with PBS, the cells were incubated with the secondary antibody Alexa Fluor® 647 anti-human IgG Fcγ (Jackson ImmunoResearch Laboratories, Inc., Cat #: 109-606-170) at 4° C. for 15 minutes before flow cytometry analysis. Human IgG1 was used as ISO control.

[5] = target: T1, His-tagged human IGF1R protein (ACRO …); test: SPR (Biacore 8K) on captured hIGF1R-His, binder injected second (Analyte 2); competitor injected first (Analyte 1): 10G1
Experimental: as §1, §2

[6] = target: T3, human IGF1R (insulin-like growth factor 1 receptor) on cells (human, UniProt P08069 31-1367); test: cell-based or functional assay
T3 sequence (P08069 31-1367 limits assumed): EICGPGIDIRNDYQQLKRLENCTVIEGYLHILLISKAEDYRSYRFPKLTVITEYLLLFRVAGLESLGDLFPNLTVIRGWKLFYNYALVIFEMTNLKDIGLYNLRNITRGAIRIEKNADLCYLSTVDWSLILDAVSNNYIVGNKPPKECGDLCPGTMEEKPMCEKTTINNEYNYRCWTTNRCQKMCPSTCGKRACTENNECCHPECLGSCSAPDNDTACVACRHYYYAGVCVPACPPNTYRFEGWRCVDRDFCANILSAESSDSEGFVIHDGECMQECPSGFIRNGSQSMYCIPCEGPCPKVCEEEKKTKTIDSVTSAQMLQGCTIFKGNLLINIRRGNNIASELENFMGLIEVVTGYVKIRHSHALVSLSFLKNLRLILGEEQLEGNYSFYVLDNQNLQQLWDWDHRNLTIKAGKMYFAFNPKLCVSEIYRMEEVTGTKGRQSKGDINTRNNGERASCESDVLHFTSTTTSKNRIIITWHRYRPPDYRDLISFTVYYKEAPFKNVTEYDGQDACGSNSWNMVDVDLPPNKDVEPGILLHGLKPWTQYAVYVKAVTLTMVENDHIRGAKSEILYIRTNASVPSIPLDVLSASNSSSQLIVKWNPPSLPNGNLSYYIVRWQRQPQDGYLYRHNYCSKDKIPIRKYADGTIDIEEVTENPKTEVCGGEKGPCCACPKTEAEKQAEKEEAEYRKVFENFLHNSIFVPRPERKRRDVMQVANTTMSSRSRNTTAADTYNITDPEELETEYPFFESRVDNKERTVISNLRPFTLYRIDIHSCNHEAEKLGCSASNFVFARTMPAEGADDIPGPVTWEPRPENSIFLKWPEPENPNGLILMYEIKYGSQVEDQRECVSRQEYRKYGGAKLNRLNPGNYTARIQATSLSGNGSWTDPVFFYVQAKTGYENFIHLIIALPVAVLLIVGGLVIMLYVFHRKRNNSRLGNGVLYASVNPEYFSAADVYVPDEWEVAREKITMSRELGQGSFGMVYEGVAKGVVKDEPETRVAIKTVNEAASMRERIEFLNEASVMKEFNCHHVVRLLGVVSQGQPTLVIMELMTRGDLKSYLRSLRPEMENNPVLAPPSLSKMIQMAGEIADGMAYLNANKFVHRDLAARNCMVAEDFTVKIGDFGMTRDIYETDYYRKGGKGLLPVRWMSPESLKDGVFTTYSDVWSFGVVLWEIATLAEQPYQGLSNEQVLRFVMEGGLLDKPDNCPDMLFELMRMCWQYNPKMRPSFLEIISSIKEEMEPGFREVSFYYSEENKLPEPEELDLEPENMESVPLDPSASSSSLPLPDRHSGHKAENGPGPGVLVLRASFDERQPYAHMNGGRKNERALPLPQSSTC

[7] = target: T1, His-tagged human IGF1R protein (ACRO …); test: blocking ELISA on coated hIGF1R-His; blocked ligand: biotinylated human IGF-I
Experimental: Blocking assays were performed to determine whether the anti-IGF1R antibodies can block the binding between IGF1R and its ligand IGF-1 and IGF-2. Specifically, the microwell plates were coated with 100 μl/well of 5 μg/mL hIGF1R-His in pH 9.6 carbonate buffer, overnight at 4° C. Plates were blocked with at 200 μl/well of 1% bovine serum albumin and incubated at 37° C. for 2 hours. Serially diluted anti-IGF1R antibodies (0.005-10 μg/mL in 3-fold serial dilution plus buffer blank) were added to the plates at 100 μL/well. After a 1.5-hour incubation, Biotinylated Human IGF-I Protein (Acro Biosystems, Cat #: IG1-H82F7) or Biotinylated Human IGF-I Protein was replaced with Biotinylated Human IGF-II Protein (Acro Biosystems, Cat #: IG2-H82Q6) were added to the plates at 100 μL/well. After a 1.5-hour incubation at 37° C., HRP Streptavidin (Biolegend, Cat #: 405210) at 1:3000 dilution was added to the plates at 100 μL/well and incubated for 1 hour. Plates were washed 5 times and 100 μL of TMB was added to each well, and incubated for 10 minutes. 100 uL of 1M Phosphoric Acid was then added to each well and ELISA plates were read at 450/570 nm wavelength. A fitting curve was obtained using Log (antibody concentration (M)) as the X-axis and […] as the Y-axis.

[8] = target: T3, human IGF1R (insulin-like growth factor …); test: flow cytometry on CHO-S-hIGF1R cells, antibody 20 µg/mL
Experimental: as §3

[9] = target: T1, His-tagged human IGF1R protein (ACRO …); test: SPR (Biacore 8K) on captured hIGF1R-His, binder injected second (Analyte 2); competitor injected first (Analyte 1): 12D1
Experimental: as §1, §2

T1 sequence (P08069 31-932): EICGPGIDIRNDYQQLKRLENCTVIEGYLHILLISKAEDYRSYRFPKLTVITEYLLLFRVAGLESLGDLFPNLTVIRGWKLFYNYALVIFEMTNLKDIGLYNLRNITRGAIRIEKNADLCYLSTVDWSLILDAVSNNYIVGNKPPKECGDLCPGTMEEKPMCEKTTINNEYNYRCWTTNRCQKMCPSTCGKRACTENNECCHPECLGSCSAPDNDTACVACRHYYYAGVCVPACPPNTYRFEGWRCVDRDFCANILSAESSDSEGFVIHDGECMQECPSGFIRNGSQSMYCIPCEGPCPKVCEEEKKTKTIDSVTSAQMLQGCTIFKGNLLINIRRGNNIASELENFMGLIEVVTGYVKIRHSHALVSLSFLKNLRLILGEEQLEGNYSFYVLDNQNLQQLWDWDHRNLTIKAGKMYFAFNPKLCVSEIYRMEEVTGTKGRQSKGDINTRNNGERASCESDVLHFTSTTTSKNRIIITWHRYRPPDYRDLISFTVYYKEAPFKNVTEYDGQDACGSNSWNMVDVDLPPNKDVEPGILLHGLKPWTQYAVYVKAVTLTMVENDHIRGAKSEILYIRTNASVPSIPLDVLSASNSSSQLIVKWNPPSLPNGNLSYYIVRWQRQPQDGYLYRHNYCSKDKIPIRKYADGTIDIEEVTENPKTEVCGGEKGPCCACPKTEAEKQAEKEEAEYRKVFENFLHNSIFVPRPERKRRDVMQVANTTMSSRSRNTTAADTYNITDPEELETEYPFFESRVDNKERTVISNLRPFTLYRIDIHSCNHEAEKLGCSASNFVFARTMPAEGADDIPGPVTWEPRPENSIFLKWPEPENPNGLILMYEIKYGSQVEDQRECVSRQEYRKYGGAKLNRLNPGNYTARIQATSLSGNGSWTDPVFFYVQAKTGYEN

Binder	binding ratio (Analyte 2 / Analyte 1) [1]	Kd [2]	koff [2]	kon [2]	binding ratio (Analyte 2 / Analyte 1) [3]	Percentage of positive cells [4]	binding ratio (Analyte 2 / Analyte 1) [5]	IC50 of inhibition of IGF1R phosphorylation (CHO-S-hIGF1R cells, IGF-1 added, phosphotyrosine IGF1R ELISA) [6]	IC50 [7]	Max inhibition (%) (10 µg/mL) [7]	Percentage of positive cells [8]	binding ratio (Analyte 2 / Analyte 1) [9]
anti-IGF1R antibody 12A4 (antibody, V domains shown) VH: EVQLVQSGGGEIRPGGSLRLSCAASGFTFADYGMSWVRQAPGEGLEWVSEIDWTGGSKLYADSVKGRFTISRDNAKNSLFLQMNSLRAEDTALYYCVRDRGAVSPKYYYYGMDVWGQGTTVTVSS VL: EIVLTQSPSSLSASVGDRVTITCRASQGIRNDLGWYQQKPGKAPKRLIYAASRLQSGVPSRFSGSGSGTDFTLTISSLQPEDFATYYCLQHNSYPYTFGQGTKLEIK	0.01	0.568 nM	1.05e-05 s⁻¹	18400 M⁻¹ s⁻¹	-0.05	0.4%	-0.01	0.9 nM	2 nM	50%	50.3%	-0.02
anti-IGF1R antibody 12D1 (antibody, human IgG1, V domains shown) VH: QVQLVESGGGVVRPGGSLRLSCAASGFTFDDYGMSWVRQVPGKGLEWVSGINWNGGSTDYADSVKGRFTISREKAKNSLYLQMNSLRAEDTALYYCVRDRGAVTRRYYYYGMDVWGQGTTVTVSS VL: DIQMTQSPSSLSASVGDRVTITCRASQDIRNDLGWYQLKPGKAPKRLIYAASRLQSGVPSRFSGSGSGTEFTLTISSLQPEDFATYYCLQHNSYPYTFGQGTKLEIK	0.01	2.79 nM	1.8e-05 s⁻¹	6450 M⁻¹ s⁻¹	-0.04	0.5%	0	1.3 nM	2.2 nM	55%	39.3%	-0.01
anti-IGF1R antibody 10G1 (antibody, human IgG1, V domains shown) VH: QVQLVESGGGLVKPGGSLRLSCAASEFTFSDYYMSWIRQSPGKGLEWVSYISNSGSFTNYADSVKGRFTISRDNAKNSLYLQMNSLRAEDSAIYYCVRDQAPVTSKYYYYGMDVWGQGTTVTVSS VL: EIVLTQSPSSLSASVGDRVTITCRASQGIRNDFAWYQQKPGKAPKRLIYAASRLQRGVPSRFSGSGSGTEFTLTISSLQPEDFATYYCLQHNSYPYTFGQGTKLEIK	-0.03	8.57 nM	0.000237 s⁻¹	27600 M⁻¹ s⁻¹	-0.04	0.7%	-0.01	1.2 nM	1.6 nM	43%	46.4%	-0.02
anti-IGF1R antibody 10D1 (antibody, human IgG1, V domains shown) VH: QVQLQQSGGGVVRPGGSLRLSCAASGFTFADYGMSWVRQVPGKGLEWVSGINWNGGSTDYADSVKGRFTISRDNAKHSLYLQMNSLRAEDTAFYYCARDRGAVSRRYYYYGMDVWGLGTTVTVSS VL: AIQLTQSPSSLSASVGDRVTITCRASQDIRNDLGWYQLKPGKAPKRLIYAASRLQSGVPSGFSGSGSGTEFTLTISSLQPEDFATYYCLQHNSYPYTFGQGTKLEIK	0.03	2.1 nM	1.75e-05 s⁻¹	8360 M⁻¹ s⁻¹	-0.02	1.5%	0.02	1.4 nM	1.3 nM	47%	36.5%	0.02
